In this experiment the target is recombinant Fc-tagged VEGFR2 extracellular domain (VEGFR2-ECD) (UniProt P35968). The experiment is described as follows: SPR; Biacore 8K, single-cycle mode, 25°C, HBS-P+ buffer; Fc-tagged VEGFR2-ECD (180 nM) captured on a protein A sensor chip at about 1,400 to 1,700 RU; analytes at 1.25, 2.5, 5, 10 and 20 nM, 30 uL/min; KD from the first on and off rates of the bivalent model. In general terms: SPR reads the build-up and loss of mass on a sensor chip optically.
UniProt P35968, sequence (P35968 20-764): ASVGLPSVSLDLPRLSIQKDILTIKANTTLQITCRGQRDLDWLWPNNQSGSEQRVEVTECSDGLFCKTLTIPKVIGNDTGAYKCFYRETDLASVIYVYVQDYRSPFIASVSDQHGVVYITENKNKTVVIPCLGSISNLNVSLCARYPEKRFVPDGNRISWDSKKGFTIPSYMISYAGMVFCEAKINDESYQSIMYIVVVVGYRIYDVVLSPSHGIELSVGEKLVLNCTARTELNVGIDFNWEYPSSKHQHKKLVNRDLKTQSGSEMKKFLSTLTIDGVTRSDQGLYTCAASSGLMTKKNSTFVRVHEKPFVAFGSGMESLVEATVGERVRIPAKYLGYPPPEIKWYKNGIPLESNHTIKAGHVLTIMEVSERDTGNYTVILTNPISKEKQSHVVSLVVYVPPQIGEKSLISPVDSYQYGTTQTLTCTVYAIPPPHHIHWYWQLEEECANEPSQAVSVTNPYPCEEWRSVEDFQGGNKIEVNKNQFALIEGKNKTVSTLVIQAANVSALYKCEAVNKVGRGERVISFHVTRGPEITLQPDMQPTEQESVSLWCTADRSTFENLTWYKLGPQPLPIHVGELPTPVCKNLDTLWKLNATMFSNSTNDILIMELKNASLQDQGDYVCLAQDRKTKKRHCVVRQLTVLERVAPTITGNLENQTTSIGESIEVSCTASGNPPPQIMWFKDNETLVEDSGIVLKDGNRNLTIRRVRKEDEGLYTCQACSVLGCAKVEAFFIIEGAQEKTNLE
With “B. bacilliformis-derived BafA passenger domain (BafABba) (domain or fragment)”, the Kd came out at 91.3 nM. On to “B. henselae-derived BafA passenger domain (BafABhe) (domain or fragment)”, for which the Kd came to 2.08 nM. recombinant human VEGF-A165 (ligand): the Kd is 6.91 nM.

(Values after article PMC9044958.)
